1 substance from PMC5056442 can be followed below.

The assay concerns the target BamE (E. coli) (UniProt P0A937). The experiment in a line: SEC + native MS; purified BamABCDE; SDS-PAGE, gel filtration (Superdex200 10/300 GL, TBS with 0.05% DDM, 21 °C) and non-covalent nanoESI-MS named together for the molar ratio. On the technique in general: Size exclusion chromatography separates by hydrodynamic size, large species first.
Sequence of UniProt P0A937 (P0A937 20-113): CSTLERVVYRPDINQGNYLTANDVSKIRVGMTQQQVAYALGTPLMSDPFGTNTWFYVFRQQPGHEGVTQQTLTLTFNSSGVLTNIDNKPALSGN

Usually stoichiometry N stands for the number of molecules, sites or subunits per partner or assembly. Consider “BamB (from UniProt P77774 20-392) (natural protein)”, for which the stoichiometry N was found to be 1 molar ratio.
